Test results: article PMC4441422

Key:
[1] = molecular target: T1, full-length catalytic domain of human N-myristoyltransferase 1 (hNMT1s) (human) (UniProt P30419)
T1 sequence: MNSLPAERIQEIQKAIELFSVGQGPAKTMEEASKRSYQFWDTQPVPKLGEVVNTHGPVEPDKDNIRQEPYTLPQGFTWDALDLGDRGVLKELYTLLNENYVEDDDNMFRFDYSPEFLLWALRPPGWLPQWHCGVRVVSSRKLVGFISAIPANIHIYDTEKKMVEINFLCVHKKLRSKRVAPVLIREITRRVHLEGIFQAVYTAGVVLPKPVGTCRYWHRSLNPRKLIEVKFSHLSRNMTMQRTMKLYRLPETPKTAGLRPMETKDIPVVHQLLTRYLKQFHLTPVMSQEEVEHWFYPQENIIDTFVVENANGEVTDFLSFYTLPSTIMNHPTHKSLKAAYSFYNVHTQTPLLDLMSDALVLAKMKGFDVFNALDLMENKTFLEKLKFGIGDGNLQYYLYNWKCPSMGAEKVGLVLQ

[2] = molecular target: T2, truncation mutant of hNMT1s devoid of 28 N-terminal amino acids (Δ28-hNMT1s) (human) (UniProt P30419)
T2 sequence: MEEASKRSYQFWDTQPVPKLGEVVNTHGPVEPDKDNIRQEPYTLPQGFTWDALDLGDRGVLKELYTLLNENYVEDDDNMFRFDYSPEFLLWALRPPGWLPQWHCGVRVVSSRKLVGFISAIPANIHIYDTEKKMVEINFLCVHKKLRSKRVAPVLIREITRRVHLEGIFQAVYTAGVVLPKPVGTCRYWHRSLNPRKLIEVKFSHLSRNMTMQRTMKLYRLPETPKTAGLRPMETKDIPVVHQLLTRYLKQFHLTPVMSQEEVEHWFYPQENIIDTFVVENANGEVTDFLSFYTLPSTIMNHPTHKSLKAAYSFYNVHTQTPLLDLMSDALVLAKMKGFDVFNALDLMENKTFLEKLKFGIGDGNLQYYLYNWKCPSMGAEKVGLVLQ

K m (μM) for the peptide in the myristoylation reaction (fluorescence assay of CoA release with CPM; peptide 1-50 μM, MYA 30 μM, 5 nM enzyme, 25°C) [1]: 25.7 µM
K m (μM) for the peptide in the myristoylation reaction (fluorescence assay of CoA release with CPM; peptide 1-50 μM, MYA 30 μM, 5 nM enzyme, 25°C) [2]: 14.4 µM
Binder: GSNKSKPK [peptide substrate corresponding to the N-terminal sequence of pp60src (amino acids 2-9)]
